Measurements published in article PMC9352346.

Target: GST-Smad4-linker-MH2
Experiment: GST pull-down, immunoblot band quantification
Conditions: HEK293T cell lysate; n=3; read off a plot

other: relative amount of Arl15-AL-GFP pulled down: 1.1
Substance: Arl15-WT-GFP A86L
